Results on one molecule are retold here after paper PMC9258132, “Multi-omics profiling identifies a deregulated FUS-MAP1B axis in ALS/FTD–associated UBQLN2 mutants”.

One data set concerns the target MBP-FUS-His6 S439A (UniProt P35637 1-526, S439A). The data set is described as follows: EMSA; 5 mM MgCl2, 0.1 mg/ml yeast tRNA; 5 nM RNA, 0-10 uM protein; 20 mM NaPO4 pH 8, 150 mM NaCl, 5% glycerol, 1 mM DTT, 5 mM MgCl2, 0.5 mg/ml BSA, 0.1 mg/ml yeast tRNA, 1 U/ul RNase inhibitor, 20 min RT; 6% native PAGE in 0.5x TBE. The settings on record: protein: recombinant; tags: N-terminal MBP, C-terminal His6; hairpin with 3' single-stranded tail.

The next data set addresses MBP-FUS-His6 S439E (UniProt P35637 1-526, S439E). The data set is described as above. The following applies: protein: recombinant; tags: N-terminal MBP, C-terminal His6; hairpin with 3' single-stranded tail.

Sequence of MBP-FUS-His6 S439A (P35637 whole entry S439A): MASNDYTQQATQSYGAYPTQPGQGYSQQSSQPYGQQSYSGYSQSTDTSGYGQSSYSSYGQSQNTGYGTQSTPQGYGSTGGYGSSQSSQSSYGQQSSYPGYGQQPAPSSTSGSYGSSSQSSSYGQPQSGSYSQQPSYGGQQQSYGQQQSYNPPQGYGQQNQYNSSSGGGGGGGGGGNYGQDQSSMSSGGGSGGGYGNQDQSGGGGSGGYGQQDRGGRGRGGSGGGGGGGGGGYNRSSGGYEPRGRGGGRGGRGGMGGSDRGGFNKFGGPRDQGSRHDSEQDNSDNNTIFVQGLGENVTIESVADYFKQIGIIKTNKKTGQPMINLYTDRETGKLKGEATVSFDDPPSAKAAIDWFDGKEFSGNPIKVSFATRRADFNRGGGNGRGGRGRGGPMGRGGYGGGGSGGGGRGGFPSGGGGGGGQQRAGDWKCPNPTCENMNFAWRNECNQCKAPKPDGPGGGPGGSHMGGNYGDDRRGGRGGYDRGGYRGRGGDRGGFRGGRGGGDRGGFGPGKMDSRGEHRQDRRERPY
Sequence of MBP-FUS-His6 S439E (P35637 whole entry S439E): as the sequence (P35637 whole entry S439A) above, with A439E counted along it

GGAUCUUUAACUACUCAAGAUACUGAACAUGACAUGGUA (structured_RNA) [SON pre-mRNA stem loop with downstream GGU motif]: the binding result with MBP-FUS-His6 S439A is reported as “binds”; with MBP-FUS-His6 S439E it was “no binding”.
